Source: doi:10.1101/2023.06.23.546279 (bioRxiv, 2023)
Blank lines part the entries; values can stand above or below the binder they belong to.

How the values were obtained:
Mft1 = molecular target: T1, Mft1 (S. cerevisiae, UniProt P33441 1-392); test: cross-linking
T1 sequence: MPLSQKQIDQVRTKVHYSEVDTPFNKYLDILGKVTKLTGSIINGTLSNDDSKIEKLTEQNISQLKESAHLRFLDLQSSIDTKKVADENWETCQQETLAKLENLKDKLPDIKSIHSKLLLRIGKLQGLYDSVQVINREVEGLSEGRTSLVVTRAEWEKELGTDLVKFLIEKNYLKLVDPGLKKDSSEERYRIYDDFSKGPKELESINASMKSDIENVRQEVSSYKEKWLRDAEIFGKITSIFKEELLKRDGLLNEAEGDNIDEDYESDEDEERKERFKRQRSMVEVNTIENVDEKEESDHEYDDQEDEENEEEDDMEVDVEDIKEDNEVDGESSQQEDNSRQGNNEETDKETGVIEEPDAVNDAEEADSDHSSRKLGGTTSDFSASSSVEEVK

Tho2 = Tho2 (S. cerevisiae, UniProt P53552 1-1597); test: affinity purification with mass spectrometry
Chain of Tho2 (P53552 whole entry): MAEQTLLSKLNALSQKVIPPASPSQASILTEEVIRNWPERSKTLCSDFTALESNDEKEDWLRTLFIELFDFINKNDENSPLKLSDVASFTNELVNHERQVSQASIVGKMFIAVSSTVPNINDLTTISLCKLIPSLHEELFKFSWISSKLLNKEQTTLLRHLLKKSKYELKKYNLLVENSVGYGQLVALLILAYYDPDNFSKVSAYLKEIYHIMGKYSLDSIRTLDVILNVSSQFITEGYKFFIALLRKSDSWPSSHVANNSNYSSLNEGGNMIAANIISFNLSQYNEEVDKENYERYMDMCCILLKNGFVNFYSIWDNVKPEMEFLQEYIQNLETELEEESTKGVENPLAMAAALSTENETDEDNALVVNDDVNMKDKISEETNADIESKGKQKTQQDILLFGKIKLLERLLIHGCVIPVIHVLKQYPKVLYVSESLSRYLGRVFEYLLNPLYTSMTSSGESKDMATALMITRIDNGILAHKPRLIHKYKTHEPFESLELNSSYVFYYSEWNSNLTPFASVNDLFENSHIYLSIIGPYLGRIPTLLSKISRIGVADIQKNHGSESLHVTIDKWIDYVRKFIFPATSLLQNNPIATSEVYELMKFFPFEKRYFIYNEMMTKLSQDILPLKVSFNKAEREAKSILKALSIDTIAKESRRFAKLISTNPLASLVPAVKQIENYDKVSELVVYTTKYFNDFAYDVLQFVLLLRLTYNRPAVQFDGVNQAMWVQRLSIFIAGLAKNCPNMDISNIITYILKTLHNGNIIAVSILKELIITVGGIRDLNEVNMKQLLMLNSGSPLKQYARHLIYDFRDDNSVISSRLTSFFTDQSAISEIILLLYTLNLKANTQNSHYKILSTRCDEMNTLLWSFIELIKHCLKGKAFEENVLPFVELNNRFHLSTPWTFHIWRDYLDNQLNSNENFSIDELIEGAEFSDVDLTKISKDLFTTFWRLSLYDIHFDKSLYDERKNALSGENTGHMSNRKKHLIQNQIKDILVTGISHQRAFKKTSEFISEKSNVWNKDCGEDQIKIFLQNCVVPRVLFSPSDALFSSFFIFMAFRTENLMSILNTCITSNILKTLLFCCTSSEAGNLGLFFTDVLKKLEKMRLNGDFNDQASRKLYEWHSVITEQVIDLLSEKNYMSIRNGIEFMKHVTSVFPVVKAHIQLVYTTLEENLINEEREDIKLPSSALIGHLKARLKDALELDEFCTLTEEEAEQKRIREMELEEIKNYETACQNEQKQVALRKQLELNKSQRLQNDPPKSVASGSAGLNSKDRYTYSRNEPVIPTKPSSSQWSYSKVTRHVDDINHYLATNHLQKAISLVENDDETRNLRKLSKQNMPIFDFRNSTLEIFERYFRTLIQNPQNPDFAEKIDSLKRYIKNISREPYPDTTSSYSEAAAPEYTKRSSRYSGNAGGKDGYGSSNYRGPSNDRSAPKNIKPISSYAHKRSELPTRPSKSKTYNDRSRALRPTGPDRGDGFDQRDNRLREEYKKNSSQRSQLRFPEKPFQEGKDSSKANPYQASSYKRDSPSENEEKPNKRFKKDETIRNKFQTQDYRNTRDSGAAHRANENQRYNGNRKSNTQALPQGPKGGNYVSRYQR

binding result (Mft1): binds
B1: Thp2 (natural protein)
chain: MTKEEGRTYFESLCEEEQSLQESQTHLLNILDILSVLADPRSSDDLLTESLKKLPDLHRELINSSIRLRYDKYQTREAQLLEDTKTGRDVAAGVQNPKSISEYYSTFEHLNRDTLRYINLLKRLSVDLAKQVEVSDPSVTVYEMDKWVPSEKLQGILEQYCAPDTDIRGVDAQIKNYLDQIKMARAKFGLENKYSLKERLSTLTKELNHWRKEWDDIEMLMFGDDAHSMKKMIQKIDSLKSEINAPSESYPVDKEGDIVLE

binding result (Tho2): binds
B2: Hpr1 with a C-terminal FLAG-TEV-2xProtein-A (FTpA) tag (natural protein)
chain: MSNTEELIQNSIGFLQKTFKALPVSFDSIRHEPLPSSMLHASVLNFEWEPLEKNISAIHDRDSLIDIILKRFIIDSMTNAIEDEEENNLEKGLLNSCIGLDFVYNSRFNRSNPASWGNTFFELFSTIIDLLNSPSTFLKFWPYAESRIEWFKMNTSVEPVSLGESNLISYKQPLYEKLRHWNDILAKLENNDILNTVKHYNMKYKLENFLSELLPINEESNFNRSASISALQESDNEWNRSARERESNRSSDVIFAADYNFVFYHLIICPIEFAFSDLEYKNDVDRSLSPLLDAILEIEENFYSKIKMNNRTRYSLEEALNTEYYANYDVMTPKLPVYMKHSNAMKMDRNEFWANLQNIKESDDYTLRPTIMDISLSNTTCLYKQLTQEDDDYYRKQFILQLCFTTNLIRNLISSDETRNFYKSCYLRENPLSDIDFENLDEVNKKRGLNLCSYICDNRVLKFYKIKDPDFYRVIRKLMSSDEKFTTAKIDGFKEFQNFRISKEKIPPPAFDETFKKFTFIKMGNKLINNVWKIPTGLDKIEQEVKKPEGVYEAAQAKWESKISSETSGGEAKDEIIRQWQTLRFLRSRYLFDFDKVNEKTGVDGLFEEPRKVEALDDSFKEKLLYKINQEHRKKLQDAREYKIGKERKKRALEEEASFPEREQKIKSQRINSASQTEGDELKSEQTQPKGEISEENTKIKSSEVSSQDPDSGVAGEFAPQNTTAQLENPKTEDNNAATSNISNGSSTQDMK
